Values of other authors in publication PMC4070987.

Target: alkaline protease inhibitor (Pseudomonas aeruginosa) (UniProt Q03026)
Sequence of UniProt Q03026 (Q03026 27-131): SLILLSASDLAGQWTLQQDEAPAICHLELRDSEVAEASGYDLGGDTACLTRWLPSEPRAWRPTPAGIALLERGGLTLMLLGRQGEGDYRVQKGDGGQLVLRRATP

For “alkaline protease (AP) (from UniProt Q03023)”, the Kd is given as 4 pM.
